# Data published in patent US20190359693A1 (Janssen / Centocor, published 2019).
# What was measured:
# [1] = biological target: HA of B/Malaysia/2506/04 (Victoria) (influenza B virus); experiment: cell-based or functional assay
# [2] = biological target: HA of B/Harbin/7/94 (Yamagata) (influenza B virus); experiment: cell-based or functional assay
# [3] = biological target: HA of B/Massachusetts/02/12 (Yamagata) (influenza B virus); experiment: cell-based or functional assay
# [4] = biological target: HA of B/Lee/40 (influenza B virus, UniProt P03460 16-552); experiment: cell-based or functional assay
# [5] = biological target: HA of B/Harbin/7/94 (Yamagata) (influenza B virus); experiment: cell-based or functional assay; remark: listed apart in the source
# [6] = biological target: HA of H5N1 A/Vietnam/1194/04 (influenza A virus); experiment: cell-based or functional assay
# [7] = biological target: T1, HA of H3N2 A/HK/1/68 (influenza A virus, UniProt Q91MA7 17-530); experiment: BLI steady state
# [8] = biological target: HA of H7N7 A/Common Teal/MPF139/07 (influenza A virus); experiment: cell-based or functional assay
# [9] = biological target: HA of H7N9 A/Anhui/1/13 (influenza A virus); experiment: cell-based or functional assay
# [10] = biological target: HA of H7N9 A/Shanghai/1/13 (influenza A virus); experiment: cell-based or functional assay
# [11] = biological target: HA of H7N9 A/Shanghai/2/13 (influenza A virus); experiment: cell-based or functional assay
# [12] = biological target: HA of H10N8 A/Jiangxi/346/2013 (influenza A virus); experiment: cell-based or functional assay
# [13] = biological target: HA of H10N3 A/Common Teal/MPH11/08 (influenza A virus); experiment: cell-based or functional assay
# [14] = biological target: HA of H10N9 A/Northern Shoveler/MPE2531/08 (influenza A virus); experiment: cell-based or functional assay
# [15] = biological target: HA of B/Florida/04/2006 (Yamagata) (influenza B virus); experiment: cell-based or functional assay
# [16] = biological target: T1, HA of H3N2 A/HK/1/68; experiment: cell-based or functional assay
# [17] = biological target: T2, HA of H7N7 A/Netherlands/219/2003 (influenza A virus, UniProt P36346 19-563); experiment: cell-based or functional assay
# [18] = biological target: HA of H2N2 A/Guiyang/1/57 (influenza A virus); experiment: cell-based or functional assay
# [19] = biological target: HA of H2N2 A/WF/HK/MPU3156/05 (influenza A virus); experiment: cell-based or functional assay
# [20] = biological target: HA of H4 A/WF/HK/MPA892/06 (influenza A virus); experiment: cell-based or functional assay
# [21] = biological target: HA of H7N7 A/PR8 H7N7-NY (influenza A virus); experiment: cell-based or functional assay
# [22] = biological target: HA of H10N7 A/Chick/Germany/N/49 (influenza A virus); experiment: cell-based or functional assay
# [23] = biological target: HA of H1N1 A/Mississippi/03/01 274H (influenza A virus); experiment: cell-based or functional assay
# [24] = biological target: HA of H1N1 A/Solomon Islands/3/2006 (IVR 145) (influenza A virus); experiment: cell-based or functional assay
# [25] = biological target: HA of H1N1 A/WSN/33 (influenza A virus, UniProt P03454 18-565); experiment: cell-based or functional assay
# [26] = biological target: HA of H1N1 A/HK/54/98 (influenza A virus); experiment: cell-based or functional assay
# [27] = biological target: HA of H1N1 A/Christchurch/16/10 (influenza A virus); experiment: cell-based or functional assay
# [28] = biological target: HA of H1N2 A/Env/HK/MPU3156/05 (influenza A virus); experiment: cell-based or functional assay
# [29] = biological target: HA of H5N1 A/Indonesia/5/05 (influenza A virus); experiment: cell-based or functional assay
# [30] = biological target: HA of H5N2 A/Eurasian Wigeon/MPF461/07 (influenza A virus); experiment: cell-based or functional assay
# [31] = biological target: HA of H5N2 A/Eurasian Wigeon/HK/MPF333/07 (influenza A virus); experiment: cell-based or functional assay
# [32] = biological target: HA of H2N2 A/AnnArbor/23/57 (influenza A virus); experiment: cell-based or functional assay
# [33] = biological target: HA of H2N2 A/Env/HK/MPU3156/05 (influenza A virus); experiment: cell-based or functional assay
# [34] = biological target: HA of H6N1 A/Eurasian Wigeon/MPG1884/09 (influenza A virus); experiment: cell-based or functional assay
# [35] = biological target: HA of H6N1 A/Taiwan/2/2013 (influenza A virus); experiment: cell-based or functional assay
# [36] = biological target: HA of H6N8 A/Eurasian Wigeon/MPD411/07 (influenza A virus); experiment: cell-based or functional assay
# [37] = biological target: HA of H11N9 A/Northern Pintail/MPC2085/07 (influenza A virus); experiment: cell-based or functional assay
# [38] = biological target: HA of H9N2 A/Ck/HK/SSP176/09 (influenza A virus); experiment: cell-based or functional assay
# [39] = biological target: HA of H9N2 A/Great Cormorant/MP2934/04 (influenza A virus); experiment: cell-based or functional assay
# [40] = biological target: HA of H9N2 A/HK/466419/09 (influenza A virus); experiment: cell-based or functional assay
# [41] = biological target: HA of H8N4 A/Eurasian Wigeon/MPH571/08 (influenza A virus); experiment: cell-based or functional assay
# [42] = biological target: HA of H8N2 A/Env/MPJ1258/09 (influenza A virus); experiment: cell-based or functional assay
# [43] = biological target: HA of H12N5 A/Env/MPK659/09 (influenza A virus); experiment: cell-based or functional assay
# [44] = biological target: HA of H3N2 A/Fukui/45/04 (influenza A virus); experiment: cell-based or functional assay
# [45] = biological target: HA of H3N2 A/Aichi/2/68 (influenza A virus, UniProt P03437 17-566); experiment: cell-based or functional assay
# [46] = biological target: HA of H3N2 A/Johannesburg/33/94 (influenza A virus); experiment: cell-based or functional assay
# [47] = biological target: HA of H3N2 A/Perth/16/09 (influenza A virus); experiment: cell-based or functional assay
# [48] = biological target: HA of H3N2 A/Victoria/210/09 (influenza A virus); experiment: cell-based or functional assay
# [49] = biological target: HA of H4N1 A/Northern Pintail/MPB1368/06 (influenza A virus); experiment: cell-based or functional assay
# [50] = biological target: HA of H4N6 A/Great Cormorant/MPB1683/06 (influenza A virus); experiment: cell-based or functional assay
# [51] = biological target: HA of H14N5 A/Mallard/Astrakhan/263/1982 (influenza A virus); experiment: cell-based or functional assay
# [52] = biological target: HA of H7N7 A/Northern Shoveler/MPF518/08 (influenza A virus); experiment: cell-based or functional assay
# [53] = biological target: T2, HA of H7N7 A/Netherlands/219/2003; experiment: AlphaLISA competition vs CR9114
binder,measurement,setting,value
SD1084 (VHH) VHH: EVQLVESGGGLVQPGGSLKLSCAASGFTFSTSWMYWLRQAPGKGLEWVSVINTDGGTYYADSVKDRFTISRDNAKDTLYLQMSSLKSEDTAVYYCAKDWGGPEPTRGQGTQVTVSS,VNA titer,[1],34.9 nM
same,VNA titer,[2],240 nM
same,VNA titer,[3],40 nM
same,VNA titer,[4],> 1000 nM
same,hemagglutination inhibition titer,[5],1.1 µg/mL
same,hemagglutination inhibition titer,[6],> 50 µg/mL
"SD1038 (VHH, llama sdAb) VHH: EVQLVESGGGLVQPGGSLRLSCAVSISIFDIYAMDWYRQAPGKQRDLVATSFRDGSTNYADSVKGRFTISRDNAKNTLYLQMNSLKPEDTAVYLCHVSLYRDPLGVAGGMGVYWGKGALVTVSS",Kd,[7],44 nM
same,VNA titer,[8],359 nM
same,VNA titer,[9],253 nM
same,VNA titer,[10],503 nM
same,VNA titer,[11],239 nM
same,VNA titer,[12],239 nM
same,VNA titer,[13],301 nM
same,VNA titer,[14],327 nM
same,VNA titer,[15],> 1000 nM
same,VNA titer,[16],40.2 nM
same,VNA titer,[17],181 nM
same,VNA titer,[18],102 nM
same,VNA titer,[19],31.4 nM
same,VNA titer,[20],> 1000 nM
same,VNA titer,[21],80.6 nM
same,VNA titer,[22],469 nM
same,VNA titer,[23],4.7 nM
same,VNA titer,[24],4.1 nM
same,VNA titer,[25],5 nM
same,VNA titer,[26],16.5 nM
same,VNA titer,[27],2.6 nM
same,VNA titer,[28],40.5 nM
same,VNA titer,[29],32.8 nM
same,VNA titer,[30],18.8 nM
same,VNA titer,[31],11 nM
same,VNA titer,[32],33 nM
same,VNA titer,[33],23.2 nM
same,VNA titer,[34],16.2 nM
same,VNA titer,[35],15.3 nM
same,VNA titer,[36],13.2 nM
same,VNA titer,[37],160 nM
same,VNA titer,[38],90.8 nM
same,VNA titer,[39],105 nM
same,VNA titer,[40],700 nM
same,VNA titer,[41],53.4 nM
same,VNA titer,[42],58.7 nM
same,VNA titer,[43],> 1000 nM
same,VNA titer,[44],632 nM
same,VNA titer,[45],127 nM
same,VNA titer,[46],443 nM
same,VNA titer,[47],253 nM
same,VNA titer,[48],253 nM
same,VNA titer,[49],485 nM
same,VNA titer,[50],275 nM
same,VNA titer,[51],253 nM
same,VNA titer,[52],441 nM
same,pIC50,[53],7.5
